Data from patent US20200095333A1.

Target: human serum albumin (HSA) (human) (UniProt P02768)
Experiment: HSA binding class, Table 23

“ABD L64G/I65A/V71A (from UniProt P19909 254-299)” was tested, and the HSA binding was < 0.1.
